{"source": "paper PMC5615192", "about": "(mBio, 2017)", "parents": {"B1": {"name": "unnamed (parent)", "chain 1": "EATVYLPPVPVSKVVSTDEYVSRTSIYYYAGSSRLLAVGNPYFSIKSPNNNKKVLVPKVSGLQYRVFRVRLPDPNKFGFPDTSFYNPDTQRLVWACVGLEIGRGQPLGVGVSGHPYLNKFDDTETSNRYPAQPGSDNRECLSMDYKQTQLCLIGCKPPTGEHWGKGVACNNNAAATDCPPLELFNSIIEDGDMVDTGFGCMDFGTLQANKSDVPIDICNSTCKYPDYLKMASEPYGDSLFFFLRREQMFVRHFFNRAGKLGEAVPDDLYIKGSGNTAVIQSSAFFPTPSGSIVTSESQLFNKPYWLQRAQGHNNGICWGNQLFVTVVDTTRSTNMTLCTEVTKEGTYKNDNFKEYVRHVEEYDLQFVFQLCKITLTAEIMTYIHTMDSNILEDWQFGLTPPPSASLQDTYRFVTSQAITCQKTAPPKEKEDPLNKYTFWEVNLKEKFSADLDQFPLGRKFLLQSGLKAKPRLKRSAPTTRAPSTKRKKVKK", "chain 2": "EVQLQQSGAELVRPGALVKLSCKASGFNIKDYYMHWVKQRPEQGLEWIGWIDPENGKTIYDPRFRGKASITADTSSNTAYLQLSSLTSEDAAVYYCATSNYRYDRSFDYWGQGTTLTVSAKTTPPSVYPLAPGCGDTTGSSVTSGCLVKGYFPEPVTVTWNSGSLSSSVHTFPALLQSGLYTMSSSVTVPSSTWPSQTVTCSVAHPASSTTVDKKL", "chain 3": "DIQMTQSPSSLFASLGGKVTITCKASQDINKYIAWFQHKPGKGPRLLIHYTFTLQPGIPSRFSGSGSGRDYSFSISNLEPEDIATYYCLQYHNLYTFGGGTKLEIKRADAAPTVSIFPPSSEQLTSGGASVVCFLNNFYPKDINVKWKIDGSERQNGVLNSWTDQDSKDSTYSMSSTLTLTKDEYERHNSYTCEATHKTSTSPIVKSFNRNEC"}, "B2": {"name": "unnamed (parent)", "chain 1": "B1 chain 2", "chain 2": "B1 chain 3", "chain 3": "B1 chain 1"}}}
{"variants_of": "B1", "experiment": "SPR (Biacore)", "settings": "with partner chain of the complex shown; read off a plot"}
{"variant": "chain 1 N137A", "Kd": "8.2 -log10, M"}
{"variant": "chain 1 Q132A", "Kd": "7.9 -log10, M"}
{"variant": "chain 1 S135A", "Kd": "8.2 -log10, M"}
{"variant": "chain 1 N275A", "Kd": "6.9 -log10, M"}
{"variant": "chain 1 R128A", "Kd": "6 -log10, M"}
{"variants_of": "B2", "experiment": "indirect ELISA", "settings": "with partner chain of the complex shown", "units": {"EC50": "µg/mL"}}
{"variant": "chain 3 D121A", "EC50": 0.0784}
{"variant": "chain 3 N137A", "EC50": 0.011}
{"variant": "chain 3 N275A", "EC50": 0.0455}
{"variant": "chain 3 Q132A", "EC50": 0.0152}
{"variant": "chain 3 S135A", "EC50": 0.0132}
